The values below come from the Immune Epitope Database (IEDB).

Test [1] concerns the target HLA-A*30:02. Put plainly: IEDB peptide-MHC binding, purified MHC/competitive/radioactivity; filed as Kd, often an IC50 or EC50 that approximates it; ≥ and ≤ were set here for values at or beyond the usual limits of such assays.
Test [2] concerns the target HLA-A*30:01. The description is as above.
Test [3] concerns the target HLA-A*29:02. The test is described as above.
In test [4] the target is HLA-A*26:01. The test is described as above.
The target in test [5] is HLA-A*01:01. The description is as above.
The target of test [6] is HLA-A*32:01. Described as above.
The target of test [7] is HLA-A*24:02. Described as above.
Test [8] concerns the target HLA-A*23:01. Described as above.
Test [9] has as its target HLA-B*51:01. The description is as above.
Test [10] concerns the target HLA-A*68:01. Described as above. The note with it: source organism: Dengue virus 2 Jamaica/1409/1983.
In test [11] the target is HLA-A*26:01. Put plainly: IEDB peptide-MHC binding, purified MHC/direct/fluorescence; filed as Kd, often an IC50 or EC50 that approximates it; ≥ and ≤ were set here for values at or beyond the usual limits of such assays. The following applies: source organism: West Nile virus.
Test [12] has as its target HLA-B*53:01. Kind of test: IEDB peptide-MHC binding, purified MHC/competitive/radioactivity; filed as Kd, often an IC50 or EC50 that approximates it; ≥ and ≤ were set here for values at or beyond the usual limits of such assays. The note with it: source organism: Dengue virus 4 Dominica/814669/1981.
[13] abbreviates: source organism: Mammarenavirus whitewaterense.
Setting [14] is: source organism: Dengue virus 1 Brazil/97-11/1997.
Where [15] appears, read: source organism: SARS coronavirus Tor2.
[16] abbreviates: source organism: Dengue virus 4 Philippines/H241/1956.
The mark [17] stands for this setting: source organism: Dengue virus 2 Jamaica/1409/1983.
The mark [18] stands for this setting: source organism: Mammarenavirus juninense.
Where [19] appears, read: source organism: Mammarenavirus guanaritoense.
Where [20] appears, read: source organism: Lymphocytic choriomeningitis virus (strain Armstrong).

Broadly, the Kd is the concentration at which binding is half-saturated. On to ATGTDMPGGY, for which the Kd in test [1] (setting [13]) is 531 nM; in test [2] (setting [13]), at least 63600 nM; in [3] (setting [13]), 8850 nM; in test [4] (setting [13]) it was at least 69700 nM; in test [5] (setting [13]), 33 nM; in test [6] (setting [13]), at least 69900 nM.
Take AWNIWEVEDY: the Kd in test [1] (setting [14]) came out at 1880 nM.
On to AYATAQEAY, for which the Kd in [1] (setting [15]) was 50.6 nM; in [7] (setting [15]), at least 53900 nM; in test [3] (setting [15]) it was 642 nM; in test [4] (setting [15]) it was at least 43100 nM; in test [8] (setting [15]), at least 77800 nM; in test [5] (setting [15]), at least 98000 nM.
Turning to AYMLFTKFFY, the Kd turned out to be 0.241 nM in [7] (setting [15]); 0.00115 nM in test [3] (setting [15]); 83.5 nM in test [4] (setting [15]); 0.115 nM in test [8] (setting [15]); 339 nM in test [5] (setting [15]).
As for CKSKNPLLY, the Kd was 199 nM in test [1] (setting [15]); at least 77600 nM in test [7] (setting [15]); 163 nM in test [3] (setting [15]); at least 81500 nM in test [4] (setting [15]); at least 67600 nM in [8] (setting [15]); at least 87700 nM in test [5] (setting [15]).
In the case of CYSQVNPTTL, the Kd amounted to 326 nM in test [7] (setting [16]) and 1330 nM in test [8] (setting [16]).
As for DPRRCMKPVI, the Kd in [9] (setting [17]) stood at 9650 nM.
As for DSSQGSEYDY, the Kd in [1] (setting [15]) was 151 nM; in [7] (setting [15]), at least 70300 nM; in [3] (setting [15]), 1350 nM; in test [4] (setting [15]), 7270 nM; in test [8] (setting [15]), at least 70000 nM; in test [5] (setting [15]), 151 nM.
In the case of DVFFTPPEK, the Kd stood at 1300 nM in test [2] (setting [17]) and 3.59 nM in test [10].
Take EALSGFLQY: the Kd in test [1] (setting [18]) was 3950 nM; in test [2] (setting [18]), at least 43100 nM; in [3] (setting [18]) it was 778 nM; in test [4] (setting [18]), 1490 nM; in test [5] (setting [18]), 11600 nM; in test [6] (setting [18]), at least 77800 nM.
With EVEDYGFGVF, the figures for the dissociation constant (Kd) in [4] (setting [17]) and in [8] (setting [17]) were 132 nM and 1000 nM, respectively.
For the sequence FKPGTSGSPI, in test [9] (setting [14]), the Kd stood at 5750 nM.
On to FLDGVNLVA, for which the Kd in [1] (setting [19]) is 17700 nM; in test [7] (setting [19]) it was at least 77500 nM; in [3] (setting [19]) it was 5430 nM; in test [4] (setting [19]) it was at least 77900 nM; in test [8] (setting [19]), 8810 nM; in test [5] (setting [19]), 9.76 nM.
As for FMMSRRRLL, the Kd is 6730 nM in test [1] (setting [15]); 1410 nM in test [7] (setting [15]); 2620 nM in test [3] (setting [15]); at least 77900 nM in [4] (setting [15]); 496 nM in test [8] (setting [15]); at least 78100 nM in test [5] (setting [15]).
As for FSKSRSTLMY, the Kd is 993 nM in test [1] (setting [20]); 377 nM in test [2] (setting [20]); 333 nM in test [3] (setting [20]); 878 nM in test [4] (setting [20]); 68.5 nM in test [5] (setting [20]); at least 69900 nM in test [6] (setting [20]).
Consider GAEHVDTSY, for which the Kd in test [1] (setting [15]) was 2900 nM; in test [7] (setting [15]) it was at least 77600 nM; in [3] (setting [15]), 722 nM; in [4] (setting [15]) it was 2450 nM; in test [8] (setting [15]), at least 77800 nM; in [5] (setting [15]), 398 nM.
As for HLSRTVVYSY, the Kd in [1] (setting [19]) is 63.8 nM; in [2] (setting [19]), 525 nM; in test [3] (setting [19]), 1210 nM; in [4] (setting [19]) it was 10600 nM; in test [5] (setting [19]), 1330 nM; in test [6] (setting [19]), 671 nM.
HTNEDDSNF gave a Kd in test [11] of 1900 nM.
Consider IPHDLMELI, for which the values for the Kd in test [12] and in test [9] (source organism: Dengue virus 4 Dominica/814669/1981) were 6.5 nM and 16.8 nM, respectively.
